Experimental data published in patent US12589164.

B1: membrane type serine protease 1 (MT-SP1) (protein)
chain: VVGGTDADEGEWPWQVSLHALGQGHICGASLISPNWLVSAAHCYIDDRGFRYSDPTQWTAFLGLHDQSQRSAPGVQERRLKRIISHPFFNDFTFDYDIALLELEKPAEYSSMVRPICLPDASHVFPAGKAIWVTGWGHTQYGGTGALILQKGEIRVINQTTCENLLPQQITPRMMCVGFLSGGVDSCQGDSGGPLSSVEADGRIFQAGVVSWGDGCAQRNKPGVYTRLPLFRDWIKENTGV
B2: MMP2 (protein)
chain: YNFFPRKPKWDKNQITYRIIGYTPDLDPETVDDAFARAFQVWSDVTPLRFSRIHDGEADIMINFGRWEHGDGYPFDGKDGLLAHAFAPGTGVGGDSHFDDDELWTLGEGQVVRVKYGNADGEYCKFPFLFNGKEYNSCTDTGRSDGFLWCSTTYNFEKDGKYGFCPHEALFTMGGNAEGQPCKFPFRFQGTSYDSCTTEGRTDGYRWCGTTEDYDRDKKYGFCPETAMSTVGGNSEGAPCVFPFTFLGNKYESCTSAGRSDGKMWCATTANYDDDRKWGFCPDQGYSLFLVAAHEFGHAMGLEHSQDPGALMAPIYTYTKNFRLSQDDIKGIQELYGASPDIDLGTGPTPTLGPVTPEICKQDIVFDGIAQIRGEIFFFKDRFIWRTVTPRDKPMGPLLVATFWPELPEKIDAVYEAPQEEKAVFFAGNEYWIYSASTLERGYPKPLTSLGLPPDVQRVDAAFNWSKNKKTYIFAGDKFWRYNEVKKKMDPGFPKLIADAWNAIPDNLDAVVDLQGGGHSYFFKGAYYLKLENQSLKSVKFGSIKSDWLGC

Tests used:
[1] = target: (MCA)-His-Gln-Ser-Arg-Pro-Trp-Gly-Leu-Gly-Ser-Lys (DNP)-D-Arg (SEQ ID NO: 660)
[2] = target: (MCA)-His-Gln-Ser-Arg-Ser-Ala-Ile-Ala-Leu-Gly-Ser-Lys (DNP)-D-Arg (SEQ ID NO: 655)
[3] = target: (MCA)-His-Gln-Ser-Arg-Ser-Ala-Ile-Ala-Leu-X1-Gly-Lys (DNP)-D-Arg (SEQ ID NO: 654) where X1 is Y
[4] = target: (MCA)-His-Gln-Ser-Arg-Ser-Ala-Ile-Ala-Leu-X1-X2-Lys (DNP)-D-Arg (SEQ ID NO: 653) where X1 is Y and X2 is A
[5] = target: (MCA)-His-Gln-Ser-Arg-Ser-Gly-Pro-Trp-Gly-Leu-X1-Lys (DNP)-D-Arg (SEQ ID NO: 659) where X1 is absent
[6] = target: (MCA)-His-Gln-Ser-Arg-Ser-Pro-Trp-Gly-Gly-Ser-Lys (DNP)-D-Arg (SEQ ID NO: 661)
[7] = target: (MCA)-His-Gln-Ser-Arg-Ser-Pro-Trp-Gly-Leu-Gly-Lys (DNP)-D-Arg (SEQ ID NO: 665)
[8] = target: (MCA)-Ser-Pro-Trp-Gly-Leu-His-Gln-Ser-Arg-Gly-Lys (DNP)-D-Arg (SEQ ID NO: 663)
[9] = target: (MCA)-Ser-Pro-Trp-Gly-Leu-His-Gln-Ser-Arg-Ser-Lys (DNP)-D-Arg (SEQ ID NO: 657)
[10] = target: (MCA)-Ser-Pro-Trp-Gly-Leu-His-Gln-Ser-Lys-Ser-Lys (DNP)-D-Arg (SEQ ID NO: 664)
[11] = target: D-Arg-Lys (DNP)-Ala-Ile-Ala-Leu-His-Gln-Ser-Arg-Ser-Lys (MCA)-D-Arg (SEQ ID NO: 658)
[12] = target: peptide probe with CM … (SEQ ID NO: 641)
[13] = target: peptide probe with CM … (SEQ ID NO: 642)
[14] = target: peptide probe with CM … (SEQ ID NO: 643)
[15] = target: peptide probe with CM … (SEQ ID NO: 644)
[16] = target: peptide probe with CM … (SEQ ID NO: 645)
[17] = target: peptide probe with CM … (SEQ ID NO: 646)
[18] = target: peptide probe with CM … (SEQ ID NO: 647)
[19] = target: peptide probe with CM … (SEQ ID NO: 639)
[20] = target: peptide probe with CM … (SEQ ID NO: 648)
[21] = target: peptide probe with CM … (SEQ ID NO: 649)
[22] = target: peptide probe with CM … (SEQ ID NO: 650)

| Protein | Probe Cleavage (pM/s) [1] [pM/s] | Probe Cleavage (pM/s) [2] | Probe Cleavage Kcat/KM [2] [M⁻¹ s⁻¹] | Probe Cleavage (pM/s) [3] [pM/s] | Probe Cleavage Kcat/KM [3] [M⁻¹ s⁻¹] | Probe Cleavage (pM/s) [4] [pM/s] | Probe Cleavage Kcat/KM [4] [M⁻¹ s⁻¹] | Probe Cleavage (pM/s) [5] [pM/s] | Probe Cleavage (pM/s) [6] [pM/s] | Probe Cleavage (pM/s) [7] [pM/s] | Probe Cleavage (pM/s) [8] [pM/s] | Probe Cleavage (pM/s) [9] [pM/s] | Probe Cleavage Kcat/KM [9] [M⁻¹ s⁻¹] | Probe Cleavage (pM/s) [10] [pM/s] | Probe Cleavage (pM/s) [11] [pM/s] | Probe Cleavage Kcat/KM [11] [M⁻¹ s⁻¹] | Probe Cleavage (pM/s) [12] | Probe Cleavage (pM/s) [13] [pM/s] | Probe Cleavage (pM/s) [14] [pM/s] | Probe Cleavage (pM/s) [15] [pM/s] | also measured |
| --- | --- | --- | --- | --- | --- | --- | --- | --- | --- | --- | --- | --- | --- | --- | --- | --- | --- | --- | --- | --- | --- |
| B1 | 32 | Above limit of quantitation | 510000 | 1960 | 790000 | 1750 | 630000 | 9930 | 3470 | 1210 | 540 | 1280 | 28000 | 1630 | 11500 | 55000 | Above limit of quantitation | 1860 | 11300 | 8 | Probe Cleavage Kcat/KM [7]: 35000 M⁻¹ s⁻¹; Probe Cleavage (pM/s) [16]: 7330 pM/s; Probe Cleavage (pM/s) [17]: Above limit of quantitation; Probe Cleavage (pM/s) [18]: Above limit of quantitation; Probe Cleavage (pM/s) [19]: 10800 pM/s; Probe Cleavage (pM/s) [20]: 4120 pM/s; Probe Cleavage (pM/s) [21]: 7780 pM/s; Probe Cleavage (pM/s) [22]: 7920 pM/s |
| B2 | 4020 | 76.9 pM/s | 4900 | 434 | 67000 | 468 | 29000 | 94.8 | 61.6 | 44.2 | 6840 | 2550 | 54000 | 6640 | 4220 | 17000 | 726 pM/s | 692 | 623 | 696 | Probe Cleavage (pM/s) [16]: 594 pM/s; Probe Cleavage (pM/s) [17]: 1390 pM/s; Probe Cleavage (pM/s) [18]: 65.4 pM/s; Probe Cleavage (pM/s) [19]: 17600 pM/s; Probe Cleavage (pM/s) [20]: 488 pM/s; Probe Cleavage (pM/s) [21]: 61.1 pM/s; Probe Cleavage (pM/s) [22]: 410 pM/s |
